Experimental findings from patent publication US20220289850 (published 2022) are described below.

The experiment has as its target T1, mouse integrin avb8 (mouse).
T1 chain 1: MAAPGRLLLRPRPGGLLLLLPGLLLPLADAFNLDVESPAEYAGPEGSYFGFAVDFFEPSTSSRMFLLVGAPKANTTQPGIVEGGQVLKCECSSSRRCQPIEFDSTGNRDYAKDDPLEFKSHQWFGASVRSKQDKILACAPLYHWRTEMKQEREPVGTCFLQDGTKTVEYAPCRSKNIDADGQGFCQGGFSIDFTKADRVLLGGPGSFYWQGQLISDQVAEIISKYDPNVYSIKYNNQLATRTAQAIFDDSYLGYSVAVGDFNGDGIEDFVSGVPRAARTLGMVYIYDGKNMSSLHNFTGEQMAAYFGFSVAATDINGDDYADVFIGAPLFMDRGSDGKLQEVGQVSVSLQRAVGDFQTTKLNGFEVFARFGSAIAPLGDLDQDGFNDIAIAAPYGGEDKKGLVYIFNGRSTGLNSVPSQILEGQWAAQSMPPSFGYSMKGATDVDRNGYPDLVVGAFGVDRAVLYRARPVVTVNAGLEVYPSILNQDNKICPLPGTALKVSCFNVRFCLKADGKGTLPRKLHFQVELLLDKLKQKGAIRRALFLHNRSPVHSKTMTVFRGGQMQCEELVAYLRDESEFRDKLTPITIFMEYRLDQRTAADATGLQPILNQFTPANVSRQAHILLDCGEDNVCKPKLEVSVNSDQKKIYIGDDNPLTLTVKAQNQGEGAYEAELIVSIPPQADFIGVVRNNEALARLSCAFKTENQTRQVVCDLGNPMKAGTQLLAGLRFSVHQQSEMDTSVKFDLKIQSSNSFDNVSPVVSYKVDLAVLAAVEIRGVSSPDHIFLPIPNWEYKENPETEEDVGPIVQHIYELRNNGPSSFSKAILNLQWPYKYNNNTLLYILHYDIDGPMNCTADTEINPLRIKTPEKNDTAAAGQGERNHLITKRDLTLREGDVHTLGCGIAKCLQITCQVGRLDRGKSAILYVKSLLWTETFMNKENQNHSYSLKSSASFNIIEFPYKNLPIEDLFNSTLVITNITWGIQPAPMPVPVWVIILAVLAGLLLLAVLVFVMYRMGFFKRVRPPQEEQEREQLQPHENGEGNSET
T1 chain 2: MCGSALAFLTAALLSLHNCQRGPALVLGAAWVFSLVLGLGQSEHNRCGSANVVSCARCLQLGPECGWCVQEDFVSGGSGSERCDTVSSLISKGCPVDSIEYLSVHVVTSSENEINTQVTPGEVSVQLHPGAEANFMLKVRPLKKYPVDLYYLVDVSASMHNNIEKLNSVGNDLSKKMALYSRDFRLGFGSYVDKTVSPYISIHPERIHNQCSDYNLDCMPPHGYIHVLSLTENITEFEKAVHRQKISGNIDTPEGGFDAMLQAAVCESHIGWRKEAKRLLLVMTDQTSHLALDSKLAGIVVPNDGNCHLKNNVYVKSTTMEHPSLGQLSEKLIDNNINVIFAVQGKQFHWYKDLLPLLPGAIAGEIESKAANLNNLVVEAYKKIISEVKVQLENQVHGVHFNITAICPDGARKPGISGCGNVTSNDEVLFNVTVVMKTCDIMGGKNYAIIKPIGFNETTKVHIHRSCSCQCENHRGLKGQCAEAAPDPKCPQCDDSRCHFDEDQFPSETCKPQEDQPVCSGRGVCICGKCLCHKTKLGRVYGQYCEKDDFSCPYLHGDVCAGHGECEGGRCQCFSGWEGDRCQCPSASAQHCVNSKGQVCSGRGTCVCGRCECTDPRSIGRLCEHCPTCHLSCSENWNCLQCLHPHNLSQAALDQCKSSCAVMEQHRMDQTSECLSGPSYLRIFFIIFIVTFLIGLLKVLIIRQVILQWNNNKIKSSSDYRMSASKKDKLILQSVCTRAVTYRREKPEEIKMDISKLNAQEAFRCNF
The experiment is described as follows: SPR. On the technique in general: Surface plasmon resonance follows binding to a sensor surface in real time, without labels.

B1: ADWA11 2.4 Fab (antibody, V domains shown)
VH: EVQLVESGGGLVQPGGSLRLSCAASGFNIKDYYMNWVRQAPGKGLEWVGWIDPDQGNTIYEPKFQGRFTISADTSKNSAYLQMNSLRAEDTAVYYCARRLLMDYWGQGTLVTVSS
VL: DIQMTQSPSSLSASVGDRVTITCRSTKSLSHFNGNTYLFWYQQKPGKAPKRLIYYMSSLASGVPSRFSGSGSGTDFTLTISSLQPEDFATYYCQQSLEYPFTFGGGTKVEIK
The term Kd denotes a measure of binding affinity in units of concentration. A lower Kd goes with tighter binding. B1 came in with a Kd of 0.0708 nM.
